Results published in article PMC7251641.

Substrate: Nc1ncnc2c1ncn2[C@@H]1O[C@H](COP(=O)(O)OP(=O)(O)OP(=O)(O)O)[C@@H](O)[C@H]1O
Assay: real-time fluorescent phosphate-release ATPase assay
Assay type: biochemical, Saccharomyces cerevisiae
Conditions: nucleosome-stimulated, 15 nM nucleosomes, 23 °C

B1: SWI/SNF (Saccharomyces cerevisiae S288C) (protein)
chain: MNIPQRQFSNEEVNRCYLRWQHLRNEHGMNAPSVPEFIYLTKVLQFAAKQRQELQMQRQQQGISGSQQNIVPNSSDQAELPNNASSHISASASPHLAPNMQLNGNETFSTSAHQSPIMQTQMPLNSNGGNNMLPQRQSSVGSLNATNFSPTPANNGENAAEKPDNSNHNNLNLNNSELQPQNRSLQEHNIQDSNVMPGSQINSPMPQQAQMQQAQFQAQQAQQAQQAQQAQQAQARLQQGRRLPMTMFTAEQSELLKAQITSLKCLVNRKPIPFEFQAVIQKSINHPPDFKRMLLSLSEFARRRQPTDQNNQSNLNGGNNTQQPGTNSHYNNTNTDNVSGLTRNAPLDSKDENFASVSPAGPSSVHNAKNGTLDKNSQTVSGTPITQTESKKEENETISNVAKTAPNSNKTHTEQNNPPKPQKPVPLNVLQDQYKEGIKVVDIDDPDMMVDSFTMPNISHSNIDYQTLLANSDHAKFTIEPGVLPVGIDTHTATDIYQTLIALNLDTTVNDCLDKLLNDECTESTRENALYDYYALQLLPLQKAVRGHVLQFEWHQNSLLTNTHPNFLSKIRNINVQDALLTNQLYKNHELLKLERKKTEAVARLKSMNKSAINQYNRRQDKKNKRLKFGHRLIATHTNLERDEQKRAEKKAKERLQALKANDEEAYIKLLDQTKDTRITHLLRQTNAFLDSLTRAVKDQQKYTKEMIDSHIKEASEEVDDLSMVPKMKDEEYDDDDDNSNVDYYNVAHRIKEDIKKQPSILVGGTLKDYQIKGLQWMVSLFNNHLNGILADEMGLGKTIQTISLLTYLYEMKNIRGPYLVIVPLSTLSNWSSEFAKWAPTLRTISFKGSPNERKAKQAKIRAGEFDVVLTTFEYIIKERALLSKVKWVHMIIDEGHRMKNAQSKLSLTLNTHYHADYRLILTGTPLQNNLPELWALLNFVLPKIFNSVKSFDEWFNTPFANTGGQDKIELSEEETLLVIRRLHKVLRPFLLRRLKKDVEKELPDKVEKVVKCKMSALQQIMYQQMLKYRRLFIGDQNNKKMVGLRGFNNQIMQLKKICNHPFVFEEVEDQINPTRETNDDIWRVAGKFELLDRILPKLKATGHRVLIFFQMTQIMDIMEDFLRYINIKYLRLDGHTKSDERSELLRLFNAPDSEYLCFILSTRAGGLGLNLQTADTVIIFDTDWNPHQDLQAQDRAHRIGQKNEVRILRLITTNSVEEVILERAYKKLDIDGKVIQAGKFDNKSTSEEQEALLRSLLDAEEERRKKRESGVEEEEELKDSEINEILARNDEEMAVLTRMDEDRSKKEEELGVKSRLLEKSELPDIYSRDIGAELKREESESAAVYNGRGARERKTATYNDNMSEEQWLRQFEVSDDEKNDKQARKQRTKKEDKSEAIDGNGEIKGENIDADNDGPRINNISAEDRADTDLAMNDDDFLSKKRKAGRPRGRPKKVKLEGSENSEPPALESSPVTGDNSPSEDFMDIPKPRTAGKTSVKSARTSTRGRGRGRGRGRGRGRGRGRPPKARNGLDYVRTPAAATSPIDIREKVAKQALDLYHFALNYENEAGRKLSDIFLSKPSKALYPDYYMIIKYPVAFDNINTHIETLAYNSLKETLQDFHLIFSNARIYNTEGSVVYEDSLELEKVVTKKYCEIMGDNSQLDFTEFDEQYGTRPLVLPPVVTSSVAESFTDEADSSMTEASV
Protein B1 has a Km of 80.5 µM.
